Assay results from PMC10403523.

Tests used:
[1] = system: yeast SWI/SNF complex, Snf2 delta-AT (Saccharomyces cerevisiae); assay: EMSA; conditions: apparent KD, Kd EMSA: 6.7 nM DNA or nucleosome, 1.3-23 nM SWI/SNF, 4% native PAGE (79:1), Methods: prebinding 30 C, 15 min, gel in 0.5x TBE, binding buffer, salt and pH not …
[2] = system: yeast SWI/SNF complex, Snf2 delta-AT (Saccharomyces cerevisiae); assay: competition; conditions: EMSA competition against 601 DNA; Kd EMSA: 6.7 nM DNA or nucleosome, 1.3-23 nM SWI/SNF, 4% native PAGE (79:1); Methods: prebinding 30 C, 15 min, gel in 0.5x …; binding buffer, salt and pH not

29N59 nucleosome
Kd ([1]; 6.7 nM nucleosome, recombinant Xenopus laevis histone octamer): 20.5 nM

pUC19 plasmid
Ki [2]: 25 nM

235 bp 601 DNA
Kd ([1]; 6.7 nM DNA): 12.8 nM
